This is an account of results in patent US10758613B2, “Combination therapies using anti-metabolites and agents that target tumor-associated stroma or tumor cells” (BIOMED VALLEY DISCOVERIES, INC., priority 2014, dated 2020).

Positions count from the first letter of the chain named. Numbers in names are those of the source. Where a SMILES comes first, the peptide text is derived from it. [ ]: non-standard residue; d: D form. The star is where a group is joined. Dolaproine = CO[C@@H]([C@@H]1CCCN1)[C@@H](C)C(=O)O; Dil = CC[C@H](C)[C@H](NC)[C@@H](CC(=O)O)OC; X1 = C[C@@H](N*)[C@@H](O)c1ccccc1; NMeV = CN[C@H](C(=O)O)C(C)C

The Kd is the equilibrium constant for the complex coming apart. Low values mean a tighter complex, high ones a looser complex.

The subject of data set [1] is H460 human non-small cell lung carcinoma xenograft. In words: M830 alone and with gemcitabine, cisplatin or radiation in H460 human non-small cell lung carcinoma xenograft model. The format is in vivo, nude mice. The following applies: 58-day study, survival (TTE), logrank. The text has this: (§1) The statistical tests were not adjusted for multiple comparisons.
Treatment began on Day 1 in eight groups of nude mice (n=10) with established subcutaneous H460 tumors of 75-126 mm^3. […] The study endpoint was a tumor volume of 2000 mm^3 or the final day, Day 58, whichever came first. […] The median TTE for controls was 15.6 days, establishing a maximum possible TGD of 42.4 days (272%) for the 58-day study.
(Xenograft models place foreign cells or tissue in a host animal.)

In data set [2] the test system is OVCAR3 ovarian cancer model. In words: M825 and M825-MMAE in OVCAR3 ovarian cancer model. The following applies: free MMAE at 0.2 mg/kg, equivalent to maximum MMAE in the 10 mg/kg ADC group. The format is in vivo, mice. How it is done:
Treatment initiated when tumor volume reached approximately 120 mm^3. M825 was given i.v. at 10 mg/kg and M825-MMAE was given i.v. at 1, 3, or 10 mg/kg, 2 times per week for 3.5 weeks. […] The 10 mg/kg ADC group was redosed on Day 56, 2 times per week.

Another data set concerns 3T3 fibroblasts. In words: Contractility of 3T3 fibroblasts in the presence of TGFb-1. The format is cell-based. The protocol: 3T3 cells were cultured and contractility in the presence of TGFb-1 was measured in control or M825 exposed cells. […] Contractile forces are thought to contribute to increased cancer cell invasion.
The nature of data set [3]: Pharmacokinetics of TEM8 antibodies in mouse, multiple dose. Format: in vivo. The text has this: (§2) Tables 8 and 9 show pharmacokinetic properties of TEM8 antibodies according to the present invention in mouse for single dose (Table 8) and multiple dose (Table 9) treatments.
The nature of data set [4]: Pharmacokinetics of TEM8 antibodies in mouse, single dose. Format: in vivo.
From the text: as §2

A further data set concerns the target hTEM8-AP. In words: Biocore affinity measurements of anti-TEM8 Fabs, hTEM8-AP. The format is binding, human. The following applies: Fab.
Data set [5] relates to H460 non-small cell lung carcinoma xenograft. The data set is described as follows: M830 alone and with bevacizumab or paclitaxel in the H460 non-small cell lung carcinoma xenograft model. The format is in vivo, athymic nude mice. The following applies: combination partner Paclitaxel. The protocol:
Animals were monitored for regression responses.
as §1
Cultured H460 cells were harvested during exponential growth and resuspended in phosphate buffered saline at a concentration of 1×10^8 cells/mL. 1.0×10^7 tumor cells were injected subcutaneously into the flank of athymic nude mice. Animals were euthanized when tumors reached the pre-determined volume endpoint of 2000 mm^3 or on the final day (Day 88), whichever came first. […] Each treatment produced a significant survival difference versus controls (P<0.01). The median TTE for controls was 22.8 days, establishing a maximum possible TGD of 65.2 days (286%) for the 88-day study.

The subject of the next data set is UACC melanoma cells. The data set is described as follows: TEM8 antibody efficacy in UACC melanoma model. The format is in vivo, mice. The following applies: 15 mg/kg, 3 times per week for 3-4 weeks; treatment initiated at 50 mm^3. How it is done:
UACC melanoma cells were cultured and injected subcutaneously into mice. Treatment was initiated with a tumor volume of 50 mm^3, and treatment groups consisted of one of four TEM8 antibodies (M825, M830, M863, and M822), each dosed at 15 mg/kg, 3 times per week for 3-4 weeks.

A further data set deals with FcγRIIIa (CD16a) (Homo sapiens, UniProt P08637). In words: Binding of M830 Fc mutant to FcγRIIIa (ADCC). The following applies: Fc mutant form compared with M830. The text has this:
Fc mutations which increase ADCC are known in the art. For example, substitutions in the IgG constant region such as S239D, A330L, and I332E are known to increase binding to the FCy receptor. (see, e.g., Lazar et al., Proc. Natl., Acad. Sci. U.S.A., 103:4005-4010, 2006). In the present example, the M830 Fc S239D:I332E double mutant was generated and confirmed by standard molecular biology techniques (830M: S239D/I332E).

Chain of hTEM8-AP (Q9H6X2 33-321): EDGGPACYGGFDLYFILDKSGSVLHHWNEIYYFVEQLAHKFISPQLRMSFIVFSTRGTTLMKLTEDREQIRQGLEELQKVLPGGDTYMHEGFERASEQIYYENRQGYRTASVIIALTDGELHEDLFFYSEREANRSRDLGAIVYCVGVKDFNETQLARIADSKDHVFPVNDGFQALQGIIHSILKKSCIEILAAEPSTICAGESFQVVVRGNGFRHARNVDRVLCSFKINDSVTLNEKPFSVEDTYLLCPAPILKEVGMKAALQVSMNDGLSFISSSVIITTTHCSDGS
Chain of FcγRIIIa (CD16a) (P08637 17-254): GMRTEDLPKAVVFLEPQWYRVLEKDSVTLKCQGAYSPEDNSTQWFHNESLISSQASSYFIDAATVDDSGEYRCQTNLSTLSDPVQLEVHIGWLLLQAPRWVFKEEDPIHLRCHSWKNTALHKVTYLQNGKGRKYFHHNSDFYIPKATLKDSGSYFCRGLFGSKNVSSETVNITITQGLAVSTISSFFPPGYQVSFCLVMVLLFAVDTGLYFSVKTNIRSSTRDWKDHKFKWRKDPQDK

On to `N.N.[Cl][Pt][Cl]` [Cisplatin, cisplatin], for which, in [1], the “outcome compared to vehicle-treated controls” value was “statistically significant survival benefit”.
Turning to `CC[C@H](C)[C@@H]([C@@H](CC(=O)N1CCC[C@H]1[C@H](OC)[C@@H](C)C(=O)N[C@H](C)[C@@H](O)c1ccccc1)OC)N(C)C(=O)[C@@H](NC(=O)[C@@H](NC)C(C)C)C(C)C` [MMAE, reference compound] (H-[NMeV]V[Dil][Dolaproine]-X1), the “effect in OVCAR3 model” value in data set [2] was “No effect”.
`Nc1ccn([C@@H]2O[C@H](CO)[C@@H](O)C2(F)F)c(=O)n1` [gemcitabine]: the “outcome compared to vehicle-treated controls” value in [1] is listed as “not statistically different from vehicle-treated controls”.
As for “M825: TEM8 monoclonal antibody (hIgG1); VH SEQ ID NO:1, VL SEQ ID NO:2 [Antibody M825]”, in the data set on 3T3 fibroblasts, the “contractility of activated 3T3 fibroblasts in vitro” value is “block the contractility”. The AUCI in [3] (5 mg/kg) is 1408.345 µg·h/mL; in data set [3] (15 mg/kg), 21649.446 µg·h/mL; in data set [4] (5 mg/kg), 1310.519 µg·h/mL; in [4] (15 mg/kg) it was 9239.202 µg·h/mL. The AUCT in data set [3] (5 mg/kg) is 1408.201 µg·h/mL; in data set [3] (15 mg/kg), 21648.879 µg·h/mL; in data set [4] (5 mg/kg) it was 1310.222 µg·h/mL; in data set [4] (15 mg/kg) it was 8991.767 µg·h/mL. In addition, on hTEM8-AP, binding was put at a Kd of 59.1 pM.

B1: M830: TEM8 monoclonal antibody (hIgG1); VH SEQ ID NO:5, VL SEQ ID NO:6 (antibody, V domains shown)
VH: EVQLVESGGGVVQPGRSVRLSCAASGFTFSTYTMHWVRQAPGKGLEWVAIISNDGSNKYYADPVRGRFTISRDNSKNTLYLQMNSLRAEDTAVYYCVRGSSWYRGNWFDPWGQGTLVTVSS
VL: DIQMTQSPSSLSASVGDRVTIACRASQTISRYLNWYQQKPGKAPKLLIYAASSLQSGVSSRFSGSGSGTEFTLTISSLQPEDFATYFCQQTYSPPITFGQGTRLEIKR
modifications: TEM830 mAb VH; TEM830 mAb VL
Take B1: the “outcome compared to vehicle-treated controls” value in data set [1] is “not statistically different from vehicle-treated controls”. Further, the AUCI in [3] (5 mg/kg) amounted to 4316.79 µg·h/mL; in data set [3] (15 mg/kg), 23053.875 µg·h/mL; in data set [4] (5 mg/kg), 2242.485 µg·h/mL; in [4] (15 mg/kg), 10692.742 µg·h/mL. For the same molecule, the AUCT in [3] (5 mg/kg) came out at 4315.918 µg·h/mL; in data set [3] (15 mg/kg) it was 23052.853 µg·h/mL; in data set [4] (5 mg/kg), 2242.286 µg·h/mL; in [4] (15 mg/kg), 10692.598 µg·h/mL. Besides, the “regression (with % Tumor Reduction vs. Vehicle at Day 21)” value in data set [5] is on record as −61%. For the same molecule, in the data set with UACC melanoma cells, the “tumor growth in the UACC melanoma model” value is recorded as “effective at slowing tumor growth”. Moreover, the Kd at hTEM8-AP worked out at 1570 pM.

B2: M830 Fc S239D:I332E double mutant: M830 with Fc substitutions S239D and I332E made to increase ADCC (antibody)
heavy: B1 VH
VL: B1 VL
modifications: left off: a dimerising Fc or GST
notes: M830 with Fc substitutions S239D and I332E made to increase ADCC
Turning to B2, in the data set with FcγRIIIa (CD16a), the “binding to FcγRIIIa (CD16a)” value is “significantly enhanced binding”.

B3: M863: TEM8 monoclonal antibody (hIgG1); VH SEQ ID NO:7, VL SEQ ID NO:8 (antibody, V domains shown)
VH: EVQLVETGAEVKKPGASVKVSCKASGYTFTGYYMHWVRQAPGQGLEWMGWINPTSGSTNYAQKFQGRVTMTRDTSISTAYMELSGLRSDDTAVYYCVRDPGSPKWLAFDPWGQGTLVTVSS
VL: B1 VL with M4L, A22T, Q27R, T28A
modifications: TEM863 mAb VH; TEM863 mAb VL
On to B3, for which the AUCI in data set [3] (5 mg/kg) was determined as 1425.735 µg·h/mL; in [3] (15 mg/kg) it was 7272.672 µg·h/mL; in data set [4] (5 mg/kg), 1330.847 µg·h/mL. Besides, the AUCT in [3] (5 mg/kg) is 1425.565 µg·h/mL; in data set [3] (15 mg/kg), 7271.7 µg·h/mL; in [4] (5 mg/kg), 1330.742 µg·h/mL; in data set [4] (15 mg/kg) it was 10721.535 µg·h/mL.
